Reference: the nanobody polyreactivity screen of Harvey et al. (2022)

Assay: yeast display, Sf9 membrane polyspecificity reagent, FACS + sequencing; frameworks hold sequencing errors
Outline: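 A synthetic nanobody library was expressed on Saccharomyces cerevisiae BJ5465 by galactose induction for 36–48 hours. The library was stained for 1 hour at 4 °C with 10% biotinylated, detergent-solubilized Sf9 membrane reagent and enriched with streptavidin microbeads before FACS. Low and high (top ~1%) gates were set on anti-HA fluorescence for expression and streptavidin fluorescence for reagent binding, and each polyreactivity label reflects the gate of origin.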

| Sequence | polyreactivity (PSR sort gate) |
| --- | --- |
| QVQLVESGGGLVQAGGSLRLSCAASGFIFPFYVRGWYRQAPGKERELVAAINTGGSTYYADSVKGRFTISRDNAKNTVYLQMNSLKPEDTAVYYCAAKSRVKKYYFYGYNYWGQGTQVTVSS | high polyreactivity |
| QVQLVESGGGLVQAGGSLRLSCAASGFIFPGNMGWYRQAPGKERELVAAISWSGGSTRYADSVKGRFTISRDNAKNTVYLQMNSLKPEDTAVYYCAASLSGKRFTKRYYWGQGTQVTVSS | high polyreactivity |
| QVQLVESGGGLVQAGGSLRLSCAASGFIFPGYAMGWYRQAPGKERELVAAISWSGGRTYYADSVKGRFTISRDNAKNTVYLQMNSLKPEDTAVYYCNARYRQITYEYDYWGQGTQVTVSS | high polyreactivity |
| QVQLVESGGGLVQAGGSLRLSCAASGFIFPLYTMGWDRQAPGKERELVAAISVTGGSTYYADSVKGRFTISRDNAKNTVYLQMNSLKPEDTAVYYCAADLYYIWVYGYSSAMDYWGQGTQVTLSS | high polyreactivity |
| QVQLVESGGGLVQAGGSLRLSCAASGFIFPSNAMGRYRQAPGKERELVAAISSRGTRTYYADSVKGRFTISRDNAKNTVYLQMNCLKPEDTAVYYCAKYGYWGQGTQVTVSS | high polyreactivity |
| QVQLVESGGGLVQAGGSLRLSCAASGFIFPTYAMGWYRQAPGKERELVAAITWSGSDTYYADSVKGRFTISRDNAKNTVYLQMNRLKPEDTAVYYCAAEVSKYGWRYYYWGQGTQVTVSS | low polyreactivity |
| QVQLVESGGGLVQAGGSLRLSCAASGFIFPTYAMGWYRQAPGKERELVATITTNAGGTHYADSVKGRFTISRDNAKNNVYIQMNSLKPEDTAVYYCNAYGPNIYSSRYDYWGQGTQVTVSS | low polyreactivity |
| QVQLVESGGGLVQAGGSLRLSCAASGFIFPYYDMGWYRQAPGKERELVADIDSSGGTTYYADSVKGRFTISRDNAKNTVYLQMNSLKPEDTAVYYCAATYQAWTWYPYYVIYDYWGQGTQVTVSS | high polyreactivity |
| QVQLVESGGGLVQAGGSLRLSCAASGFIFPYYGMGWYRQAPGKERELVATISRSGGRTYYADSVKGRFTISRDNAKNTVYLQMNSLKPEDTAVYYCARTTPYFYVDWGGYDYWGQGTQVTVSS | high polyreactivity |
| QVQLVESGGGLVQAGGSLRLSCAASGFIFQIYAMGWYRQAPGKERELVAAISSGGSTNYADSVKGRFTISRDNAKNTVYLQMNSLKPEDTAVYYCAAATHYWYFYSFKDKSGFRGYYWGQGTQVTVSS | high polyreactivity |
| QVQLVESGGGLVQAGGSLRLSCAASGFIFQKYVMGWSRQAPGKERELVAVISRSGDSTRYADSVKGRFTISRDNAKNTVYLQMNSLKPEDTAVFYCAAASAKFTGTGYYFWGQGTQVTVSS | high polyreactivity |
| QVQLVESGGGLVQAGGSLRLSCAASGFIFQPYVMGWYRQAPGKERELVAAISWNGVSTYYADSVKGRFTISRDNAKNTVYLQMNSLKPEDTAVYYCAASYRYVPGLNYWGQGTQVTVSS | low polyreactivity |
| QVQLVESGGGLVQAGGSLRLSCAASGFIFQRNAMGWYRQAPGKERELVAAIRSSGGTTYYADSVKGRFTISRDNAKNTVYLQMNSLKPEDTAVYYCAAVTTSKFNYWGQGSQVTVSS | low polyreactivity |
| QVQLVESGGGLVQAGGSLRLSCAASGFIFQVYAMGWYRQAPGKERELVAGISRTGGSTYYADSVKGRFTISRDNAKNTVYLQMNSLKPEDTAVYYCAKPYWGYYGYFTHNYWGQGTQVTVSS | high polyreactivity |
| QVQLVESGGGLVQAGGSLRLSCAASGFIFQYYAMGWYRQAPGKERELVAVIRSGGSTYYADSVKGRFTISRDNAKNTVYLQMNSLKPEDTAVYYCNARRTYLDRYNYWGQGTQVTVSS | high polyreactivity |
| QVQLVESGGGLVQAGGSLRLSCAASGFIFRAYAMGWYRQEPGKERELVAAISRGGGTYYADSVKGRFTISRDNAKNTVYLQMNSLKPEDTAVYYCAVDLLRRGFPTVVTTYDYWGQGTQVTVSS | high polyreactivity |
| QVQLVESGGGLVQAGGSLRLSCAASGFIFRDNAMGWYRQAPGKERELVAAISSRGGSTYYADSVKGRFTISRDNAKNTVYLQMNSLKPEDTAVYYCAKRPYKSRVQLDSWGQGTQVTVSS | high polyreactivity |
| QVQLVESGGGLVQAGGSLRLSCAASGFIFRDYAMGWYRQAPGKERELVATISSS | low polyreactivity |
| QVQLVESGGGLVQAGGSLRLSCAASGFIFRFNAMGWYRQAPGKERQLVAAISGSGGITYYADSVKGRFTISRDNAKNTVYLQMNSLKPEDTAVYYCAARPLFGWRGYNYWGQGTQVTVSS | high polyreactivity |
| QVQLVESGGGLVQAGGSLRLSCAASGFIFRFYAMGWYRQAPGKERELVATISKRGGTTYYADSVKGRFTISRDNAKYTVYLQMNSLKPEDTAVYFCAVRLYLEMDYWGQGTQVTVSS | high polyreactivity |
| QVQLVESGGGLVQAGGSLRLSCAASGFIFRGYAMGWYRQAPGKERELVAAISRSGGSTYYADSVKGRFTISRDNAKNTVYLQMNSLKPEDTAVYYCAARNSPGFPGDYWGQGTQVTVSS | high polyreactivity |
